Test results taken from patent publication US11160871B2, “SSTR-targeted conjugates and particles and formulations thereof” (TARVEDA THERAPEUTICS, INC., priority 2015, dated 2021).
Like-named read-outs stand apart in the source and are kept apart here.

What was measured:
[1] = Plasma pharmacokinetics; assay type: in vivo; settings: for Vd: read-out: Vss
Protocol: In this example, plasma pharmacokinetics of Conjugate 57 was studied in mouses, rats and dogs. Half-life, maximum plasma drug concentration (Cmax), drug clearance (CL), area under the curve time curve from time 0 to the last sampling time (AUC 0-t), and apparent volume of distribution at steady state (VSS) were measured.

[2] = tested on: panel of GPCRs (119 targets); assay: Off-target binding to a panel of GPCRs; settings: 1 uM concentration
Protocol: To further study the off-target binding of Conjugate 57, the binding of Conjugate 57 to a panel of GPCRs (119 targets) was measured at 1 uM concentration. Conjugate 57 has no activity against the panel of GPCRs.

[3] = target: SSTR2 (Homo sapiens, UniProt P30874); assay: SSTR2 receptor internalization in H524-MD tumor xenograft (IHC); assay type: in vivo; parameters: expressed in transfected cells
Protocol: SSTR2 receptor internalization was studied using Conjugate 57 in a highly expressing SSTR2 positive (SSTR2+) tumor xenograft: H524_MD tumor xenograft. Vehicle (0.1% Solutol/5% Mannitol), Conjugate 57 at 2 mg/kg, scrambled control (BT-984) at 2 mg/kg, and Octreotide at 1.4 mg/kg (ligand alone) were given to SSTR2+H524-MD tumor xenografts (n=3/group). Timepoints—0 hr (Vehicle), 15 mins, 1 hr, 4 hr, 24 hr and 72 hrs. SSTR2 scoring was done by immunohistochemistry (IHC) staining.

[4] = Membrane permeability in Caco-2 monolayers; assay type: in vitro ADME; settings: human, Caco-2; Test Conc. 10 uM
Protocol: (§1) Membrane permeability of Conjugate 57 was measured in Caco-2 monolayers. The apparent permeability (Papp) was determined to be very low in both the apical to basolateral direction and the basolateral to apical direction.

[5] = tested on: Caco-2 monolayers; assay: Membrane permeability in Caco-2 monolayers; assay type: in vitro ADME; settings: Test Conc. 10 uM
Protocol: as §1

[6] = tested on: passage 3 IMR-32 tumors; assay: IMR-32 tumor model; assay type: in vivo, mice
Protocol: Further, mice bearing passage 3 IMR-32 tumors were dosed with Conjugate 57 either at 2.0 mg/kg or 1.5 mg/kg once a week for two weeks with a vehicle negative control. […] The 1.5 mpk group only lost an average of 2.0%. All mice recovered once dosing was complete.

[7] = tested on: HCC-33 (SCLC) xenografts; assay: HCC-33 (SCLC) xenografts, tumor growth inhibition (Example 13); assay type: in vivo; settings: for TGI % Day 5 / TGI % Day 8 / TGI % Day 12 / TGI % Day 16 / TGI % Day 20 / TGI % Day 23 / TGI % Day 27 / TGI % Day 30: dosed on Day 1 and Day 8
Protocol: The efficacy of Conjugate 57 was studied with HCC-33 (SCLC) xenografts. Conjugate 57 was dosed on Day 1 and Day 8.

[8] = tested on: NIC-H524 tumor xenograft model (SSTR2 expressing); assay: Dose response study in NIC-H524 tumor xenograft model; assay type: in vivo
Protocol: A dose response study was carried out in NIC-H524 tumor xenograft model (SSTR2 expressing) with a single dose of Conjugate 57. Doses evaluated were 0.5 mg/kg, 1.0 mg/kg, and 2.0 mg/kg.

[9] = NCI-H524 small cell lung cancer model, tumor volume and body weight; assay type: in vivo; settings: in vivo; read-out: maximum tolerated dose (MTD)
Excerpt: (§2) NCI-H524 over expresses SSTR2. […] There was minimal body weight loss and favorable toxicology.

[10] = tested on: NCI-H524 small cell lung cancer model; assay: as above; assay type: in vivo
Excerpt: as §2

[11] = tested on: NCI-H69 SCLC tumors; assay: H69 tumor DM-1 levels by LC/MS-MS; assay type: in vivo, mice; settings: 1 mg/kg; 24 hour time point
Protocol: To examine the ability of conjugates of the present invention to accumulate in tumors, a murine cancer model was used. All mice were treated in accordance with the OLAW Public Health Service Policy on Human Care and Use of Laboratory Animals and the ILAR Guide for the Care and Use of Laboratory Animals. All in vivo studies were conducted following the protocols approved by the Blend Therapeutics Institutional Animal Care and Use Committee. Animals were inoculated with 2.5×10^6 NCI-H69 SCLC (small cell lung cancer) cells in 1:1 RPMI 1640 (Invitrogen, Carlsbad, Calif.)/Matrigel® (BD Biosciences, San Jose, Calif.) via subcutaneous injection to the right flank. Tumors were allowed to reach an approximate volume of ˜500 mm3. Animals were then randomized into treatment groups of 3 animals per time point and were dosed at 1 mg/kg (10% propylene glycol in water for injection for free conjugates, or 10% sucrose for nanoparticles), or 0.4 mg/kg for DM-1 (10% propylene glycol in water for injection). The 24 hour time point was used as a benchmark across conjugates.
Tumor DM-1 levels were determined by liquid chromatography mass spectrometry (LC/MS-MS). Four volumes of 5 mM 6-maleimidohexanoic acid to 1 part tumor v/w was added and homogenized for about 10-15 seconds with a handheld homogenizer. 10 μL of 500 mM Tris(2-carboxyethyl)phosphine was added to 100 uL of tumor homogenate, mixed well and incubated at room temperature for about 5-15 min. 200-300 uL of acetonitrile was used to precipitate proteins in tumor homogenate, samples were centrifuged for 5 min, and supernatant was injected onto LC/MS-MS system for DM-1 analysis.

[12] = 2 mg/kg, H524-MD tumor xenografts
[13] = both groups (2 mg/kg and 1 mg/kg)
[14] = single dose 0.5, 1.0 and 2.0 mg/kg

Sequence of SSTR2 (P30874 whole entry): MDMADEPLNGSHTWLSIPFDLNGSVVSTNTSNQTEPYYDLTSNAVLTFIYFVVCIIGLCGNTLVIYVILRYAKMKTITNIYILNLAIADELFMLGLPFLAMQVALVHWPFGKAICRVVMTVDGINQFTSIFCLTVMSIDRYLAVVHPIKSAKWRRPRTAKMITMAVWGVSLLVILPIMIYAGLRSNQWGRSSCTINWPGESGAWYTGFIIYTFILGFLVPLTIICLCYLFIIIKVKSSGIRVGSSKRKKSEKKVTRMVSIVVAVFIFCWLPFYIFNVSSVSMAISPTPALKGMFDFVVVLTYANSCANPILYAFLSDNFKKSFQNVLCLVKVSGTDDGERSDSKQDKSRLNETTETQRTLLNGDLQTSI

COc1cc2cc(c1Cl)N(C)C(=O)C[C@H](OC(=O)[C@H](C)N(C)C(=O)CCSSC[C@H](NC(=O)[C@@H]1CSSC[C@H](NC(=O)[C@H](N)Cc3ccccc3)C(=O)N[C@@H](Cc3ccc(O)cc3)C(=O)N[C@H](Cc3c[nH]c4ccccc34)C(=O)N[C@@H](CCCCN)C(=O)N[C@@H]([C@@H](C)O)C(=O)N1)C(N)=O)[C@]1(C)O[C@H]1[C@H](C)[C@@H]1C[C@@](O)(NC(=O)O1)[C@H](OC)/C=C/C=C(\C)C2 [Conjugate 57] gave an AUC(0-t) ([1]; Dog, 0.1 mg/kg) of 0.619 µM·h, a Cmax ([1]; Dog, 0.1 mg/kg) of 0.73 µM and a clearance ([1]; Dog, 0.1 mg/kg) of 1.39 mL/min/kg. For the same molecule, the half-life ([1]; Dog, 0.1 mg/kg) was 172 min, the Vd ([1]; Dog, 0.1 mg/kg) was 0.224 L/kg and the AUC(0-t) ([1]; Mouse, 2 mg/kg) was 7.3 µM·h. It also gave a Cmax ([1]; Mouse, 2 mg/kg) of 5.93 µM, a clearance ([1]; Mouse, 2 mg/kg) of 2.32 mL/min/kg and a half-life ([1]; Mouse, 2 mg/kg) of 732 min. The Vd ([1]; Mouse, 2 mg/kg) was 0.963 L/kg, the AUC(0-t) ([1]; Rat, 1.5 mg/kg) was 2.77 µM·h and the Cmax ([1]; Rat, 1.5 mg/kg) was 4.69 µM. The clearance ([1]; Rat, 1.5 mg/kg) was 4.99 mL/min/kg, the half-life ([1]; Rat, 1.5 mg/kg) was 484 min and the Vd ([1]; Rat, 1.5 mg/kg) was 0.594 L/kg. For the same molecule, the “activity against the panel of GPCRs” value [2] was “no activity”, the “SSTR2 internalization distribution of staining” value [3, 12] was “significantly different results from BT-984 and naïve at 4 hr, 24 hr, and 72 hours” and the “SSTR2 receptor internalization intensity of staining” value [3, 12] was “significantly different results from scrambled peptide version of compound 57 (BT-984) and naïve at 1 hr, 4 hr, and 72 hours”. For the same molecule, the “SSTR2 internalization compared with octreotide” value ([3]; Conjugate 57 2 mg/kg, Octreotide 1.4 mg/kg) was “caused more SSTR2 internalization than octreotide alone”, the Papp A→B at 10 uM [4] was 0.018 ×10⁻⁶ cm/s and the Papp B→A at 10 uM [4] was 0.094 ×10⁻⁶ cm/s. The “Mean A→B Papp” value [5] was “very low”, the “Mean B→A Papp” value [5] was “very low” and the “average body weight loss after the second dosing event” value ([6]; 2.0 mg/kg once a week for two weeks) was 8.0%. For the same molecule, the “mice showing complete regression” value ([6]; both treatment groups, 2.0 mg/kg or […] once a week for two weeks) was 10 out of 10, the “TGI % Day 5” value ([7]; 1 mg/kg) was 46.2% and the “TGI % Day 8” value ([7]; 1 mg/kg) was 71.3%. For the same molecule, the “TGI % Day 12” value ([7]; 1 mg/kg) was 87.2%, the “TGI % Day 16” value ([7]; 1 mg/kg) was 96.3% and the “TGI % Day 20” value ([7]; 1 mg/kg) was 98.1%. The “TGI % Day 23” value ([7]; 1 mg/kg) was 99.2%, the “TGI % Day 27” value ([7]; 1 mg/kg) was 99.6% and the “TGI % Day 30” value ([7]; 1 mg/kg) was 99.6%. The “TGI % Day 5” value ([7]; 2 mg/kg) was 47%, the “TGI % Day 8” value ([7]; 2 mg/kg) was 74.8% and the “TGI % Day 12” value ([7]; 2 mg/kg) was 88.2%. For the same molecule, the “TGI % Day 16” value ([7]; 2 mg/kg) was 96.2%, the “TGI % Day 20” value ([7]; 2 mg/kg) was 98.3% and the “TGI % Day 23” value ([7]; 2 mg/kg) was 99.1%. For the same molecule, the “TGI % Day 27” value ([7]; 2 mg/kg) was 99.5%, the “TGI % Day 30” value ([7]; 2 mg/kg) was 99.9% and the Body weights [7, 13] was “increased”. The Tumor regression [7, 13] was roughly 100%, the “dose response (tumor volume)” value [8, 14] was “clear dose response” and the “tolerability (body weight change)” value [8, 14] was “all doses are well-tolerated”. The “tumor response (tumor volume)” value ([8]; single dose of 2 mg/kg) was “significant regression”, the MTD [9] was 2 mg/kg and the “tumor response (mean tumor volume)” value ([10]; 2 mg/kg (MTD) and 1 mg/kg) was “complete tumor regressions”. For the same molecule, the “tolerability (mean body weight change)” value ([10]; in vivo) was “well tolerated” and the “H69 tumor DM-1 levels” value [11] was 243 nM.
